The record followed here is patent US20120266260A1.

Experiment [1] has as its target synthetic IgA1 hinge-region glycopeptide linked to BSA with 3 GalNAc residues (HR-GalNAc-BSA) (bovine) (UniProt P02769). Briefly: ELISA, wells with HR-GalNAc-BSA treated with unlabeled HAA (20 ug/ml); competitor: IgG from cell lines of IgAN patients. Background: In an ELISA, binding on a coated surface is turned into a signal by an enzyme label.
Experiment [2] has as its target Gal-deficient IgA1 (Mce) myeloma protein (human) (UniProt P01876). The experiment is described as follows: Western blot, membrane pre-incubated with unlabeled HAA (20 ug/ml); competitor: IgG purified from the serum of an IgAN patient; densitometry. For orientation: Immunoblotting shows a protein as a band on a membrane.

The substance Helix aspersa agglutinin (HAA) showed a percent inhibition of IgG binding in experiment [1] of 78%. The substance further yielded a percent reduction of IgG binding in experiment [2] of 66%.
